Assay results as given in US5506202A, “Insulin derivatives, a process for the preparation thereof, the use thereof, and a pharmaceutical formulation containing them” (Hoechst Aktiengesellschaft, priority 1988, dated 1996).
Read-outs that look alike come from different tables or passages of the source.

Legend:
[1] = isoelectric point (measured by isoelectric focusing); type: physicochemical; details: insulin derivatives of the invention
Protocol: Characteristic of these insulin derivatives is an isoelectric point between 5.8 and 8.5 (measured by isoelectric focusing). The isoelectric point--which is shifted into the neutral range by comparison with the isoelectric point of the unmodified native insulin or proinsulin (at pH = 5.4)--is determined by the additional positive charge(s) located on the surface of the molecule as a result of the basic modification. This makes these insulin derivatives with a basic modification less soluble in the physiological neutral range than is, for example, native insulin or proinsulin, which are normally in dissolved form in the neutral range.
The isoelectric point of the insulin derivatives of the formula II is between 5.5 and 9.0 (measured by isoelectric focusing).

[2] = unmodified native insulin or proinsulin, background; cited from earlier work

Substance | isoelectric point [1] | isoelectric point [2]
A0-Arg-de-Thr-B30-human insulin | about 6.2 | 
native insulin: unmodified native insulin, comparison for isoelectric point and biological activity |  | 5.4 pH
proinsulin: proinsulin, comparison for isoelectric point |  | 5.4 pH
